The text below walks through data of article PMC12208556, “Thrombospondin-1 inhibits alternative complement pathway activation in antineutrophil cytoplasmic antibody-associated vasculitis” (The Journal of Clinical Investigation, 2025).

Common to all, as to settings: both partners purified
One test concerns the target T1, complement factor H (UniProt P08603 19-1231).
T1 construct: Complement factor H; also called FH; source: bought: Complement Technologies
The test can be described thus: SPR; BIAcore 3000; TSP-1 bound covalently to CM5 chips at 0.1 uM; complement proteins as analytes at 12.3, 37.03, 111.1, 333.3, 1,000 nM in PBS plus 0.05% Tween 20; 1:1 Langmuir binding model; average of 3 repeated measurements.

Test [1] deals with T2, complement C8 (UniProt P07357 31-584; P07358 55-591; P07360 21-202).
T2 construct: source: bought: Complement Technologies; copies: + +
The test is described as above.
T2 sequence (P07357 31-584, chain 1 of 3): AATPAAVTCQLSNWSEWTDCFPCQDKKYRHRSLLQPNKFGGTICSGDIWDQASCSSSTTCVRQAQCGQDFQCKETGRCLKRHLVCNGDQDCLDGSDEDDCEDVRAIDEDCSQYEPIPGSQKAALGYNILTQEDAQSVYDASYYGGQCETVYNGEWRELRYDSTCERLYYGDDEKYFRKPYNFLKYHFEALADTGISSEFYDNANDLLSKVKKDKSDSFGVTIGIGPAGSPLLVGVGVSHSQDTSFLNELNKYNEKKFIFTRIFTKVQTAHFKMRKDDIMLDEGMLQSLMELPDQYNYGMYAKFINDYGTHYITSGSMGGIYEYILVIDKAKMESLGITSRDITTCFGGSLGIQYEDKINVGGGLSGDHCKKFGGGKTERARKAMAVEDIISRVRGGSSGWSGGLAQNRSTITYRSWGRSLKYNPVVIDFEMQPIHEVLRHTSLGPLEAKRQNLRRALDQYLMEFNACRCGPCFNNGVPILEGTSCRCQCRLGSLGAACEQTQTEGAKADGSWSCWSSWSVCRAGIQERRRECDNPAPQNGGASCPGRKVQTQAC
T2 sequence (P07358 55-591, chain 2 of 3): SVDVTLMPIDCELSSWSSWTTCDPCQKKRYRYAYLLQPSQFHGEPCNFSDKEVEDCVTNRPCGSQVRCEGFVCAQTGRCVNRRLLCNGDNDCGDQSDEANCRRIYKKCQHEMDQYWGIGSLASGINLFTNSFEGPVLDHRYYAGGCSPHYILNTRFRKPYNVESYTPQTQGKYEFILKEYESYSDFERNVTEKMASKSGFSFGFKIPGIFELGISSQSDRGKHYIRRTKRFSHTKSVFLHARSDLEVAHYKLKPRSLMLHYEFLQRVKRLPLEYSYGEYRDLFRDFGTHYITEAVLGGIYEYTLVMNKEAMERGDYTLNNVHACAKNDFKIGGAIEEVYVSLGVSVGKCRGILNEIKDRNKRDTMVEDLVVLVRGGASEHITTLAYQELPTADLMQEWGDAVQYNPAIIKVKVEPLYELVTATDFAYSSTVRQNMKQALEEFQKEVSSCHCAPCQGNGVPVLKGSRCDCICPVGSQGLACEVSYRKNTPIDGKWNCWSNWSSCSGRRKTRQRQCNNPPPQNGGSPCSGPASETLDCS
T2 sequence (P07360 21-202, chain 3 of 3): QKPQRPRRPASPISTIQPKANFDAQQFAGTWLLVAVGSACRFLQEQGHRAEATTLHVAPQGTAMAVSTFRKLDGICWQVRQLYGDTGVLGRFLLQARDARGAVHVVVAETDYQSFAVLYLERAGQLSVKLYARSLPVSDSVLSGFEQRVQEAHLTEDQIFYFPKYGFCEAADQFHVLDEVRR

The target of a further test is T3, complement factor H (FH) (UniProt P08603 19-1231).
T3 construct: Complement factor H, obtained from Complement Technologies; source: bought: Complement Technologies
T3 sequence (P08603 19-1231): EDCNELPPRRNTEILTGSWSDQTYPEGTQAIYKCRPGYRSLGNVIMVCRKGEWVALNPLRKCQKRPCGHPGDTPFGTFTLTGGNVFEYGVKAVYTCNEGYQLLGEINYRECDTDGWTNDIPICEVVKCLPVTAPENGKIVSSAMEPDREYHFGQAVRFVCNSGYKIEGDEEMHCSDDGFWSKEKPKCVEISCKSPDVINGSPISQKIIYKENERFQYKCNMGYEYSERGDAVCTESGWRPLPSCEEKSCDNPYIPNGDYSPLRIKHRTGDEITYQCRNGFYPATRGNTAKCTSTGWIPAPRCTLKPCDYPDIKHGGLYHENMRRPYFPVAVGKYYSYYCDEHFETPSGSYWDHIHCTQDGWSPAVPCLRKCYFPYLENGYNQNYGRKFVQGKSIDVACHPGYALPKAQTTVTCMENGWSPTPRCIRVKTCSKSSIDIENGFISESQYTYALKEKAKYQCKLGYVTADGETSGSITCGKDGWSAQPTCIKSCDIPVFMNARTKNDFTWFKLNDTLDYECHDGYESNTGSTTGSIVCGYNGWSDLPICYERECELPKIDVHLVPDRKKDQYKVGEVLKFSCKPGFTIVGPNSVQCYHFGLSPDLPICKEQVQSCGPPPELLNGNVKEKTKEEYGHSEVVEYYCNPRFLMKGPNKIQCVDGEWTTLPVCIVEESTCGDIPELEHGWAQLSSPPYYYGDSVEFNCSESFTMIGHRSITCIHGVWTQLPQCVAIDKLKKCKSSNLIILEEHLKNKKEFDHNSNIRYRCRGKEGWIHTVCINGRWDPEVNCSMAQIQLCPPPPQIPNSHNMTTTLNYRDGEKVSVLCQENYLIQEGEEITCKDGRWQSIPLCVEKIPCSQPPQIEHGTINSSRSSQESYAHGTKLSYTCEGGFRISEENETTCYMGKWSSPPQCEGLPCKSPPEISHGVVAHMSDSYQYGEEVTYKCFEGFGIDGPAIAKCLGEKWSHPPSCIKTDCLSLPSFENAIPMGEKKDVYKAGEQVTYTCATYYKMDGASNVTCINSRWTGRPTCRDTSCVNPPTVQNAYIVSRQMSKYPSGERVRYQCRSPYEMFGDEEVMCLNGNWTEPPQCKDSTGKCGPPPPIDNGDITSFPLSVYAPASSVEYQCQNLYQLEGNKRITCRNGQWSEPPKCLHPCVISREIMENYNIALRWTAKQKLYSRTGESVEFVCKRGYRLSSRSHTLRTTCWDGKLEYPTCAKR
The test can be described thus: SPR; BIAcore 3000; TSP-1 bound covalently to CM5 chips at 0.1 μM; complement proteins flowed at 12.3, 37.03, 111.1, 333.3, 1,000 nM in PBS plus 0.05% Tween 20; 1:1 Langmuir binding model; average of 3 measurements.

In the next test the target is T4, complement C3 (UniProt P01024 23-667; P01024 672-1663).
T4 construct: Complement C3 beta chain (75 kDa), cut from the C3 precursor; Complement C3 alpha chain (110 kDa), cut from the C3 precursor; source: bought: Complement Technologies
T4 sequence (P01024 23-667, chain 1 of 2): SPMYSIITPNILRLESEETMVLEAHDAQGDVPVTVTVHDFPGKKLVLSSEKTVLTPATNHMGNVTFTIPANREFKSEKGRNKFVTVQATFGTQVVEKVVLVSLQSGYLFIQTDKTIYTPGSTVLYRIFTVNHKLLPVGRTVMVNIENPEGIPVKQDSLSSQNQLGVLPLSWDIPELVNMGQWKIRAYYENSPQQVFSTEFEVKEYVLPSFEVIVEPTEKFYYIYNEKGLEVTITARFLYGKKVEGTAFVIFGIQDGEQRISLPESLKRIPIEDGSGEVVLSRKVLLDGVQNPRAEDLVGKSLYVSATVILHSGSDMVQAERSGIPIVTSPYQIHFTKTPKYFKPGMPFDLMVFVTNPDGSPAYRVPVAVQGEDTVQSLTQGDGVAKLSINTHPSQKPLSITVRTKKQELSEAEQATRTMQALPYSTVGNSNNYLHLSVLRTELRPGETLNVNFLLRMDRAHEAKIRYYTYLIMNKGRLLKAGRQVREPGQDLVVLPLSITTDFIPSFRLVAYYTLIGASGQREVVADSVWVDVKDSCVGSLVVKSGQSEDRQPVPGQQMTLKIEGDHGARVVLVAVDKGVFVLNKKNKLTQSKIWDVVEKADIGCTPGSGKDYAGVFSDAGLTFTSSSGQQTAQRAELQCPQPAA
T4 sequence (P01024 672-1663, chain 2 of 2): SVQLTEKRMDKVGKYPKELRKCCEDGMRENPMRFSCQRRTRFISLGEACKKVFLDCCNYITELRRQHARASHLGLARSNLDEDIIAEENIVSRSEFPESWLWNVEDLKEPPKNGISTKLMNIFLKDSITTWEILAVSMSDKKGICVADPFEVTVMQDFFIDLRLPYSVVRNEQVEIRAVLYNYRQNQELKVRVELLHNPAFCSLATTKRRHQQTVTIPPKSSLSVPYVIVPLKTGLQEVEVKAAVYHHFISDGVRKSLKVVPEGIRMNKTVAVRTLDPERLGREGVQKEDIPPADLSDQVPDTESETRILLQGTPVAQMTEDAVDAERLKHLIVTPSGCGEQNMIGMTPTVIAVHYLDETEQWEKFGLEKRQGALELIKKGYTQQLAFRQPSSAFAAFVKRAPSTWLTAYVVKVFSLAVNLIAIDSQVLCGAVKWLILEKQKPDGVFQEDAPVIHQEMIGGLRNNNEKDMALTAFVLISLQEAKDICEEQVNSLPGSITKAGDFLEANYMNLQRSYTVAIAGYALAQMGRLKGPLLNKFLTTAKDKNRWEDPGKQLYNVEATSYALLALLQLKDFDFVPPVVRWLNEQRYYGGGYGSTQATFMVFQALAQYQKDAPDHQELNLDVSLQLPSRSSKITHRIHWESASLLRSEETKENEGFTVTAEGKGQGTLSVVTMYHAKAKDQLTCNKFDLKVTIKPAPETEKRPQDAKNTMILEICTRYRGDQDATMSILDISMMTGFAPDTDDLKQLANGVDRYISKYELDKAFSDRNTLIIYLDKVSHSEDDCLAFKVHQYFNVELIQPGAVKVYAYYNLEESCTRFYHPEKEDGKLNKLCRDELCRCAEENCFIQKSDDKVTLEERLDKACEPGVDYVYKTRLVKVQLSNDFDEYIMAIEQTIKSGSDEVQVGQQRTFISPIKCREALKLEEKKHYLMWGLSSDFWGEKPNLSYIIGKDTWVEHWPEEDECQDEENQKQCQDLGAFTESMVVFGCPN
Described as above.

In the next test the target is T5, complement C5 (UniProt P01031 19-673; P01031 678-1676).
T5 construct: Complement C5 beta chain; Complement C5 alpha chain; source: bought: Complement Technologies
Described as above.

For test [2], the target named is T6, complement C8 (UniProt P07357 31-584; P07358 55-591; P07360 21-202).
T6 construct: Complement component C8 alpha chain; Complement component C8 beta chain; Complement component C8 gamma chain; source: bought: Complement Technologies; copies: + +
The test is described as above.
T6 sequence (P07357 31-584, chain 1 of 3): as the sequence (P07357 31-584, chain 1 of 3) above
T6 sequence (P07358 55-591, chain 2 of 3): as the sequence (P07358 55-591, chain 2 of 3) above
T6 sequence (P07360 21-202, chain 3 of 3): as the sequence (P07360 21-202, chain 3 of 3) above

T1 sequence (P08603 19-1231): as the sequence (P08603 19-1231) above

B1: recombinant full-length thrombospondin-1 (natural protein)
chain: not shown
notes: Thrombospondin-1, human cDNA from Sinobiological (HG10508-UT), subcloned into pFastbac1 behind a gp67 signal peptide for secretion; The gp67 signal peptide stands in place of or before the native one; also called TSP-1; source: Spodoptera frugiperda 9 cells (baculovirus), purified from cell supernatants via Ni-NTA columns; not shown: 10xHis, N-terminal, kept
Take B1: the dissociation constant (Kd) in the test with complement factor H amounted to 203 nM; in the test with complement C8 [1], 310 nM.

B2: recombinant full-length thrombospondin-1 (TSP-1) (natural protein)
chain: not shown
notes: Thrombospondin-1, human cDNA (Sinobiological HG10508-UT) subcloned into pFastbac1 with a gp67 signal peptide for secretion and an N-terminal 10xHis tag; called recombinant full-length TSP-1; Secreted through a gp67 signal peptide; also called recombinant TSP-1; source: Spodoptera frugiperda 9 cells (baculovirus), purified from cell supernatants via Ni-NTA columns; not shown: 10xHis, N-terminal, …
For B2, the Kd with complement factor H (FH) was found to be 203 nM; in the test with complement C3 it was 127 nM; in the test with complement C5 it was 47 nM; with complement C8 [2] it was 311 nM.
